Measurements as given in IntAct's records for PubMed 24520911.

B1: Lon protease homolog, mitochondrial (Homo sapiens), P36776 (parent)
chain: MAASTGYVRLWGAARCWVLRRPMLAAAGGRVPTAAGAWLLRGQRTCDASPPWALWGRGPAIGGQWRGFWEASSRGGGAFSGGEDASEGGAEEGAGGAGGSAGAGEGPVITALTPMTIPDVFPHLPLIAITRNPVFPRFIKIIEVKNKKLVELLRRKVRLAQPYVGVFLKRDDSNESDVVESLDEIYHTGTFAQIHEMQDLGDKLRMIVMGHRRVHISRQLEVEPEEPEAENKHKPRRKSKRGKKEAEDELSARHPAELAMEPTPELPAEVLMVEVENVVHEDFQVTEEVKALTAEIVKTIRDIIALNPLYRESVLQMMQAGQRVVDNPIYLSDMGAALTGAESHELQDVLEETNIPKRLYKALSLLKKEFELSKLQQRLGREVEEKIKQTHRKYLLQEQLKIIKKELGLEKDDKDAIEEKFRERLKELVVPKHVMDVVDEELSKLGLLDNHSSEFNVTRNYLDWLTSIPWGKYSNENLDLARAQAVLEEDHYGMEDVKKRILEFIAVSQLRGSTQGKILCFYGPPGVGKTSIARSIARALNREYFRFSVGGMTDVAEIKGHRRTYVGAMPGKIIQCLKKTKTENPLILIDEVDKIGRGYQGDPSSALLELLDPEQNANFLDHYLDVPVDLSKVLFICTANVTDTIPEPLRDRMEMINVSGYVAQEKLAIAERYLVPQARALCGLDESKAKLSSDVLTLLIKQYCRESGVRNLQKQVEKVLRKSAYKIVSGEAESVEVTPENLQDFVGKPVFTVERMYDVTPPGVVMGLAWTAMGGSTLFVETSLRRPQDKDAKGDKDGSLEVTGQLGEVMKESARIAYTFARAFLMQHAPANDYLVTSHIHLHVPEGATPKDGPSAGCTIVTALLSLAMGRPVRQNLAMTGEVSLTGKILPVGGIKEKTIAAKRAGVTCIVLPAENKKDFYDLAAFITEGLEVHFVEHYREIFDIAFPDEQAEALAVER
partner: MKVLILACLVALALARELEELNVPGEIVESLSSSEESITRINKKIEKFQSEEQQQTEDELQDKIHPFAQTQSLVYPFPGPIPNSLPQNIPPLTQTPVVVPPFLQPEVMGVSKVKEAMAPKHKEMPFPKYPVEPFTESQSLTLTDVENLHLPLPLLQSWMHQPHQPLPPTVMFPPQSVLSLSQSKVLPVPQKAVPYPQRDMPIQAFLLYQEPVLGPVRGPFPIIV

Variants of: B1
Settings: with casb_bovin CSN2, P02666

Variant	effect of a mutation on the interaction
G893P	decreasing interaction

Variants of: B1
Settings: with casb_bovin CSN2, P02666
Remark: another data set of the same source

Variant	effect of a mutation on the interaction
G894P	decreasing interaction

Variants of: B1
Settings: with casb_bovin CSN2, P02666
Remark: another data set of the same source

Variant	effect of a mutation on the interaction
G893P;G894A	decreasing interaction

Variants of: B1
Settings: with casb_bovin CSN2, P02666
Remark: another data set of the same source

Variant	effect of a mutation on the interaction
K529R	decreasing interaction

Variants of: B1
Settings: with casb_bovin CSN2, P02666
Remark: another data set of the same source

Variant	effect of a mutation on the interaction
G893A;G894P	decreasing interaction

Variants of: B1
Settings: with casb_bovin CSN2, P02666
Remark: another data set of the same source

Variant	effect of a mutation on the interaction
W770P	decreasing interaction
